Residue numbers refer to the chain shown, from its start.

We go through 15 molecules from patent publication US20250346679A1 (INVOX PHARMA, published 2025).

To fix the notation:
T1: cynomolgus CD137, cell-surface (cynomolgus, UniProt Q07011 24-255 (human entry))
T1 chain: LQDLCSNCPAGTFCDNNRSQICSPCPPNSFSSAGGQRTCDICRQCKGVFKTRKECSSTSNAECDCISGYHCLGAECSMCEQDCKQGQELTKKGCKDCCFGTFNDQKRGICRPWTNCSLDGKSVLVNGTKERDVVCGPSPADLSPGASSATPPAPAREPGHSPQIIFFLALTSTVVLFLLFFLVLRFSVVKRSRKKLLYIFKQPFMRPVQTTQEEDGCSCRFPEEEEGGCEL

B1: FS22-053-008-AA/G12v2 (bispecific antibody, human IgG1, kappa, L234A L235A)
heavy: EVQLVQSGAEVKRPGASVKVSCKASGYTFTSYGISWVRQAPGQGLEWMGWISAYSGGTNYAQKLQGRVTMTTDTSTSTAYMELRSLRSDDTAVYYCARDLFPTIFGVSYYYYWGQGTLVTVSSASTKGPSVFPLAPSSKSTSGGTAALGCLVKDYFPEPVTVSWNSGALTSGVHTFPAVLQSSGLYSLSSVVTVPSSSLGTQTYICNVNHKPSNTKVDKKVEPKSCDKTHTCPPCPAPEAAGGPSVFLFPPKPKDTLMISRTPEVTCVVVDVSHEDPEVKFNWYVDGVEVHNAKTKPREEQYNSTYRVVSVLTVLHQDWLNGKEYKCKVSNKALPAPIEKTISKAKGQPREPQVYTLPPSRDELNPPYLFSNQVSLTCLVKGFYPSDIAVEWESNGQPENNYKTTPPVLDSDGSFFLYSKLTVDYWRWLEGNVFSCSVMHEALHNHYTQKSLSLSPG
light: DIQMTQSPSTLSASVGDRVTITCRASQSISGRLAWYQQKPGKAPNLLIYEASNLESGVPSRFSGSGSGTEFTLTISSLQPEDFATYYCQQSYSWPRTFGQGTKVEIKRTVAAPSVFIFPPSDEQLKSGTASVVCLLNNFYPREAKVQWKVDNALQSGNSQESVTEQDSKDSTYSLSSTLTLSKADYEKHKVYACEVTHQGLSSPVTKSFNRGEC
B2: FS22-053-017-AA/E12v2 (bispecific antibody, human IgG1, kappa, L234A L235A)
heavy: B1 heavy with T28P, D424Y, Y425H
light: DIQMTQSPSTLSASVRDRVIITCRASQSIGNRLAWYQHKPGKAPKLLIYEASTSETGVPSRFSGSGSGTDFTLTISSLQPEDFATYYCQQSYSTPYTFGQGTKLEIKRTVAAPSVFIFPPSDEQLKSGTASVVCLLNNFYPREAKVQWKVDNALQSGNSQESVTEQDSKDSTYSLSSTLTLSKADYEKHKVYACEVTHQGLSSPVTKSFNRGEC
B3: FS22-053-017-AA/G12v2 (bispecific antibody, human IgG1, kappa, L234A L235A)
heavy: B1 heavy with D424Y, Y425H
light: B1 light
B4: FS22-053-017-AA/E05v2 (bispecific antibody, human IgG1, kappa, L234A L235A)
heavy: B1 heavy with D424Y, Y425H
light: DIQMTQSPSTLSASVGDRVTITCRASQSISGRLAWYQQKPGKAPNLLIYEASNLESGVPSRFSGSGSGTEFTLTISSLQPEDFATYYCQQSYSTPRVTFGQGTKVEIKRTVAAPSVFIFPPSDEQLKSGTASVVCLLNNFYPREAKVQWKVDNALQSGNSQESVTEQDSKDSTYSLSSTLTLSKADYEKHKVYACEVTHQGLSSPVTKSFNRGEC
B5: FS22-172-004 Fcab clone displayed on yeast (designed binder)
chain: GQPREPQVYTLPPSRDELNYIYPPYNQVSLTCLVKGFYPSDIAVEWESNGQPENNYKTTPPVLDSDGSFFLYSKLTVGADRWLEGNVFSCSVMHEALHNHYTQKSLSLSPG
B6: FS22-172-005 Fcab clone displayed on yeast (designed binder)
chain: B5 chain with N19Q, Y20Q, I21V
B7: FS22-053-009 Fcab clone displayed on yeast (designed binder)
chain: B5 chain with Y20P, I21P, P23L, P24F, Y25S, G78E, A79H, D80T, E84D
notes: yeast display clone, FS22-053 EF library
B8: FS22-053-008 Fcab clone displayed on yeast (designed binder)
chain: B5 chain with Y20P, I21P, P23L, P24F, Y25S, G78D, A79Y, D80W
notes: as for B7
B9: FS22-172-003 Fcab clone displayed on yeast (designed binder)
chain: B5 chain with N19P, Y22I
B10: FS22-172-002 Fcab clone displayed on yeast (designed binder)
chain: B5 chain with N19P, Y20F, I21Q, Y22M
B11: FS22-053-012 Fcab clone displayed on yeast (designed binder)
chain: B5 chain with Y20P, I21P, P23L, P24F, Y25S, G78D, A79H, D80M
notes: as for B7
B12: FS22-053-011 Fcab clone displayed on yeast (designed binder)
chain: B5 chain with Y20P, I21P, P23L, P24F, Y25S, G78D, A79Y, D80W, L83T, E84D
notes: as for B7
B13: FS22-172-001 Fcab clone displayed on yeast (designed binder)
chain: B5 chain with N19P, Y20F, I21V, Y22M
B14: FS22-053-010 Fcab clone displayed on yeast (designed binder)
chain: B5 chain with Y20P, I21P, P23L, P24F, Y25S, G78D, A79Y, D80M, E84D
notes: as for B7
B15: FS22-172-006 Fcab clone displayed on yeast (designed binder)
chain: B5 chain with N19R, Y20K, I21Y, V28L

T2 sequence (Q07011 24-186): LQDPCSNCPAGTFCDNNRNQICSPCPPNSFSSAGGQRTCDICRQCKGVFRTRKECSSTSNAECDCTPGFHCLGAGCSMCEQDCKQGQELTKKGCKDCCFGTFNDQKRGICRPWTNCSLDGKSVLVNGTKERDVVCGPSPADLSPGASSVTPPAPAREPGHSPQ

In the first assay the target is human CD137, cell-surface (human, UniProt Q07011 24-255). The assay is described as follows: cell-based or functional assay.
On to B1, for which the “EC50 (nM), hIL-2 release, CD8+ T cells, donor 171115A, HEK.hPD-L1 XL” value (“EC50 (nM) … donor 171115A, HEK.hPD-L1 XL” below) came to 0.13 nM; the “EC50 (nM), hIL-2 release, CD8+ T cells, donor 171115A, MDA-MB-231 XL” value (shortened to “EC50 (nM) … donor 171115A, MDA-MB-231 XL”) was 0.02 nM; the “EC50 (nM), hIL-2 release, CD8+ T cells, donor 171115B, HEK.hPD-L1 XL” value (“EC50 (nM) … donor 171115B, HEK.hPD-L1 XL” for short) amounted to 0.12 nM; the “EC50 (nM), hIL-2 release, CD8+ T cells, donor 171115B, MDA-MB-231 XL” value (“EC50 (nM) … donor 171115B, MDA-MB-231 XL” below) turned out to be 0.02 nM.

With B2, the “EC50 (nM) … donor 171115A, HEK.hPD-L1 XL” value was 0.11 nM; the “EC50 (nM) … donor 171115A, MDA-MB-231 XL” value is 0.01 nM; the “EC50 (nM) … donor 171115B, HEK.hPD-L1 XL” value was determined as 0.12 nM; the “EC50 (nM) … donor 171115B, MDA-MB-231 XL” value stood at 0.01 nM.

Turning to B3, the “EC50 (nM) … donor 171115A, HEK.hPD-L1 XL” value was 0.1 nM; the “EC50 (nM) … donor 171115A, MDA-MB-231 XL” value amounted to 0.01 nM; the “EC50 (nM) … donor 171115B, HEK.hPD-L1 XL” value was found to be 0.2 nM; the “EC50 (nM) … donor 171115B, MDA-MB-231 XL” value turned out to be 0.01 nM.

Turning to B4, the “EC50 (nM) … donor 171115A, HEK.hPD-L1 XL” value came to 0.15 nM; the “EC50 (nM) … donor 171115A, MDA-MB-231 XL” value amounted to 0.01 nM; the “EC50 (nM) … donor 171115B, HEK.hPD-L1 XL” value was 0.12 nM; the “EC50 (nM) … donor 171115B, MDA-MB-231 XL” value was found to be 0.01 nM.

The target of another assay is human PD-L1, cell-surface (human, UniProt Q9NZQ7 19-290). The assay is described as follows: cell-based or functional assay.
human PD-L1, cell-surface, sequence (Q9NZQ7 19-290): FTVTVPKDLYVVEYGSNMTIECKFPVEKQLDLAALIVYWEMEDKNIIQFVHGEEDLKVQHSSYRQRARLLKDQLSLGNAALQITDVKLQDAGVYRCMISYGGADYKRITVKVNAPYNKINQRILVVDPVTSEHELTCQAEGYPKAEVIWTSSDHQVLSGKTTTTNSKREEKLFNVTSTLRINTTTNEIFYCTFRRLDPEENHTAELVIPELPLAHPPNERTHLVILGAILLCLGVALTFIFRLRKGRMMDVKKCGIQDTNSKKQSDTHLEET
With B2, the “EC50 (nM), IFN-γ release, human MLR” value turned out to be 0.04 nM and the “Emax (pg/ml), IFN-γ release, human MLR” value was found to be 3330 pg/mL.

A further assay has as its target T1, cynomolgus CD137, cell-surface. The assay is described as follows: cell-based or functional assay.
As for B1, the “EC50 (nM) (crosslinked), mIL-2 release, DO11.10.cCD137 with HEK.cyPD-L1” value (shortened to “EC50 (nM) (crosslinked), mIL-2 release”) was 0.07 nM and the “Emax (pg/ml) (crosslinked), mIL-2 release, DO11.10.cCD137 with HEK.cyPD-L1” value (“Emax (pg/ml) (crosslinked)” below) was 9660 pg/mL.

As to B2, the “EC50 (nM) (crosslinked), mIL-2 release” value came to 0.11 nM and the “Emax (pg/ml) (crosslinked)” value is 9360 pg/mL.

For B3, the “EC50 (nM) (crosslinked), mIL-2 release” value came out at 0.08 nM and the “Emax (pg/ml) (crosslinked)” value came out at 8930 pg/mL.

B4: the “EC50 (nM) (crosslinked), mIL-2 release” value was found to be 0.1 nM and the “Emax (pg/ml) (crosslinked)” value worked out at 9020 pg/mL.

A further assay addresses T2, hCD137-mFc-Avi (human; mouse, UniProt Q07011 24-186, biotin on the Avi sequence where the biotinylated form was used).
T2 construct: also called human CD137-mFc-Avi; dimeric human CD137; not shown: mouse IgG2a Fc domain (mIgG2a Fc)
The assay is described as follows: flow cytometry of yeast clones with 10 nM dimeric human antigen. A general note: A flow cytometer gives signals particle by particle.
Take B5: the “% APC positive cells” value was over 10%.

B6: the “% APC positive cells” value is over 10%.

On to B7, for which the “% APC positive cells” value was over 30%.

Take B8: the “% APC positive cells” value is over 30%.

Turning to B9, the “% APC positive cells” value is over 10%.

With B10, the “% APC positive cells” value was over 10%.

As for B11, the “% APC positive cells” value was over 30%.

Take B12: the “% APC positive cells” value is over 30%.

In the case of B13, the “% APC positive cells” value was over 10%.

As for B14, the “% APC positive cells” value is over 30%.

Turning to B15, the “% APC positive cells” value was over 10%.
